We go through one molecule from patent publication US20150359847A1, “METHOD AND COMPOSITION FOR CONFERRING NEUROPROTECTION” (BLOOD SYSTEMS RESEARCH INSTITUTE, priority 2014, published 2015).

Test [1] deals with phospho-AKT(Ser473) in SH-SY5Y cells. Put plainly: Akt (Ser473) phosphorylation in differentiated SH-SY5Y cells (antibody array, western blot, Phosflow). It counts as cell-based, human. The procedure: SH-SY5Y cells were obtained from ATCC (Cat# CRL-2266, Manassas, Va.) and were cultured in DMEM and 10% FBS up to passage 10. For differentiation of SH-SY5Y cells into a neuronal phenotype, cells were first plated in DMEEM+10% FBS for 24 hrs before exchanging media in DMEM+1% FBS 10 μM retinoic acid. Differentiation was performed for 3 days before experimentation. Hippocampal neurons were prepared according to the protocol by Beaudoin et al. (Nature Protocols 2012; 7(9):1741-1754) with minor modifications. In brief, after trypsin digestion of hippocampi isolated from P1 mouse pups single cell suspensions was created by trituration and plated onto Biocoat™ poly-D-lysine coated 12-well plates (Cat#354470, BD Biosciences, San Jose, Calif.). 2 pups were used per well and cell suspensions were incubated for 10 minutes per well for a total of 6 wells. The serial incubation allowed for variation in cell densities applicable to different experiments but also contributed to the reduction in non-neuronal cells. Typically wells 1-2 were pooled for western blotting and wells 4-5 were used for imaging following treatments. After the initial plating cells were incubated for 2 hrs before media was completely exchanged for maintenance media that was supplemented with 1 μM of the anti-mitotic cytosine arabinoside in order to further reduce non-neuronal cells. For western blot, cells were cultured for 7 days before experimentation. Half of maintenance media was exchanged on day 2 and day 5. For morphology experiments, treatments were initiated upon the introduction of maintenance media and was renewed 48 hrs later for a further 24 hrs of treatment. Experiments were terminated by fixation for 20 minutes with 4% paraformaldehyde after which cells were stored at 4° C. in PBS prior to staining protocols.
Pathscan Antibody™ array kits were purchased from Cell Signaling Technologies (Danvers, Mass.). PathScan® RTK signaling antibody array kit (Fluorescent Readout, Cat#7949) and PathScan™ Akt signaling antibody array kit (Fluorescent Readout, Cat#9700) were performed as per manufacturer's instructions. Imaging was performed on a LI-COR Odyssey™ infrared scanner and pixel densities measured by in house LI-COR Image™ suite software.
After experimentation, SH-SY5Y cells were detached from culture ware via trypsin digestion and rapidly mixed with an equal volume of BD cytofix fixation buffer (Cat#554655. BD Biosciences, San Jose, Calif.). After wash steps with PBS cells were permeabilized with BD phosflow Perm Buffer III (Cat#558050. BD Biosciences, San Jose, Calif.) and incubated on ice for 30 mins. After washing in BD stain buffer (Cat#554657. BD Biosciences, San Jose, Calif.) cells were counted and 1×10^6 cells were used antibody incubation. Negative IgG compensation control was obtained using ABC control beads (Cat# A10344. Life Technologies, Grand Island, N.Y.). Antibody incubations were conducted for 30 mins at RT in the dark. Following wash steps the volume was adjusted to 500 μl and results obtained using and LSR II flow cytometer and analyzed using Flowjo™ cytometric analytical software version 8.8.7.
Cell lysates for western blotting were prepared with RIPA buffer (Cat#89900. Thermofisher Scientific, Rockford, Ill.) supplemented with phosphatase inhibitor cocktail 2 (Cat# P5726. Sigma, St Louis, Mo.), phosphatase inhibitor cocktail 3 (Cat# P0044. Sigma, St Louis, Mo.) and complete protease inhibitor (Cat#1862209. Thermofisher Scientific, Rockford, Ill.). Complete homogenization was ensured by brief sonication using a Branson Sonifier 150, (Branson Ultrasonics Corporation, Danbury, Conn.). Protein content was quantified with a Pierce BCA protein assay kit per manufacturer's instructions (Cat#23225. Thermofisher Scientific, Rockford, Ill.).
Lysates was analyzed in conjuncture with the LI-COR Odyssey™ infra-red imaging system. […]
In general terms: Immunoblotting shows a protein as a band on a membrane.

The test system of a further test is SH-SY5Y cells. The experiment in a line: Colorimetric neurite outgrowth assay. It is filed as cell-based, human. As to conditions: 1 μg/ml TIMP3, 48 hrs. The protocol:
Neurite Outgrowth Assay Kit™ 3 μm (Cat# NS220) and AXIS™ Axon Isolation Devices, 150 μm, Plasma Bonded chamber slides (Cat# AX15005PB) were purchased from (EMD Millipore, Billerica, Mass.). For neurite outgrowth assays SH-SY5Y cells were initially differentiated for 24 hrs at a density of 4×10^5 cells per well of a 6-well plate. Cells were then dissociated using kit supplied dissociation buffer and 3×10^5 cells were replated onto transwell inserts. […] Assay was conducted per manufacturer's instructions.

Test [2] has as its system β3-tubulin / dendritic branches in the molecular layer of the dentate gyrus. Put plainly: β3-tubulin western blot and staining of ipsilateral hippocampus 7 days post-TBI. It is filed as in vivo, mouse. The conditions noted are these: TIMP3 60 μg/kg IV x3; day 7 post-TBI. From the text:
The mouse controlled cortical impact (CCI) injury model was used as previously described. In brief, mice were anesthetized with 5% isoflurane and 1:1 O2:N2 mixture. Animals were mounted on a stereotaxic frame and were secured by ear bars and an incisor bar. Anesthesia was maintained with 2.0% isoflurane and 1:1 O2:N2 mixture. A 5-mm-diameter craniotomy was made midway between bregma and lambda on the right side, with the medial edge of the craniotomy 1 mm lateral to midline. Injury was produced using a magnetic impactor mounted at an angle of 110° from the vertical plane. A single impact at a velocity of 4+/−0.2 m/s was used inflict a moderate to severe injury (1.2-1.3 mm impact depth). After injury, the incision was closed. Sham animals underwent identical surgeries except for impact injury. Core body temperature was monitored using a rectal thermometer and maintained at 36.8° C.-37.2° C. with a heating pad throughout the procedure. For treatments, TIMP3 (60.0 μg/kg) or vehicle control (PBS) administration was performed at 2, 24, and 48 hrs after injury via tail vein injections in a total volume of 125 μl. Animal research was performed with approval of the Institutional Animal Care and Use Committee at ISIS Services LLC (San Carlos, Calif., USA). […]

For another test, the target named is MMP-9 (Homo sapiens, UniProt P14780). Put plainly: SensoLyte Fluorimetric MMP-9 Activity Assay. It is filed as biochemical. The conditions noted are these: dose response; 1 μg/ml TIMP3. The source says: SensoLyte Fluorimetric MMP-2 Activity Assay Kit™ (Cat#71151) and SensoLyte Fluorimetric MMP-9 Activity Assay Kit™ (Cat#71155) were purchased from AnaSpec (Fremont, Calif.) and performed per manufacturer's instructions.
MMP-9, sequence (P14780 94-707, species assumed): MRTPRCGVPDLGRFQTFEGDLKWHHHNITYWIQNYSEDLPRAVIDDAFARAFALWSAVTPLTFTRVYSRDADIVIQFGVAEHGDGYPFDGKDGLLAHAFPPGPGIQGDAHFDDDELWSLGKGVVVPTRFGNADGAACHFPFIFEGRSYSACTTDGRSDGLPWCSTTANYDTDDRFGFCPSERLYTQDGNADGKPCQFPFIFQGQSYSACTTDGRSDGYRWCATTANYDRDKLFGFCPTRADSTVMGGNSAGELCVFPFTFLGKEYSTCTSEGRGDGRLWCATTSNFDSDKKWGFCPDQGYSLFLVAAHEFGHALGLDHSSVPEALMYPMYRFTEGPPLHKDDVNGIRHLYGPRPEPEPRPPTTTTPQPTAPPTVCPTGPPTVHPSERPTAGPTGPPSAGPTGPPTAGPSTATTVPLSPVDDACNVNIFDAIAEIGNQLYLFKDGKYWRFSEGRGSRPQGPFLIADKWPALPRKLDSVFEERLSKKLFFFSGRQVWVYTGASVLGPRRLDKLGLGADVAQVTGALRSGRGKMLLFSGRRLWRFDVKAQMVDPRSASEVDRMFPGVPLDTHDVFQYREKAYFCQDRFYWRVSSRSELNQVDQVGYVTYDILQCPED

B1: TIMP3: Recombinant tissue inhibitor of matrix metalloproteinase-3, a soluble protein released by MSCs, obtained from Amgen Inc. (protein)
chain: CTCSPSHPQDAFCNSDIVIRAKVVGKKLVKEGPFGTLVYTIKQMKMYRGFTKMPHVQYIHTEASESLCGLKLEVNKYQYLLTGRVYDGKMYTGLCNFVERWDQLTLSQRKGLNYRYHLGCNCKIKSCYYLPCFVTSKNECLWTDMLSNFGYPGYQSKHYACIRQKGGYCSWYRGWAPPDKSIINATDP
As to B1, in test [1] (1 μg/ml TIMP3, 15 mins), the “p-AKT(Ser473), Phosflow cytometry” value is given as “activates p-AKT(Ser^473)”; the “p-AKT(Ser473), western blot” value was “activates p-AKT(Ser^473)”; the “phospho-AKT(Ser473), fluorescent antibody signaling array” value is on record as “activates phospho-AKT(Ser^473)”. Besides, the “p-AKT(Ser473), Phosflow cytometry” value in test [1] (1 μg/ml TIMP3, 45 minutes) was “activates p-AKT(Ser^473)”. In the test on SH-SY5Y cells, the “neurite outgrowth (colorimetric)” value was “promotes increased neurite outgrowth”. Besides, in test [2], the “number of β3-tubulin+ve dendritic branches >50 μm in the molecular layer” value is listed as “attenuated by TIMP3 treatment” and the “β3-tubulin protein in ipsilateral hippocampus, western blot” value is recorded as “attenuated by TIMP3 treatment”. In the test with MMP-9, the “MMP-9 inhibition (Sensolyte FRET assay)” value is recorded as “can fully inhibit”.
